Where two headings read alike, the source gives them in different places.

Assay [1] has as its target T1, FcγRIA (CD64) (UniProt P12314 16-292).
T1 chain: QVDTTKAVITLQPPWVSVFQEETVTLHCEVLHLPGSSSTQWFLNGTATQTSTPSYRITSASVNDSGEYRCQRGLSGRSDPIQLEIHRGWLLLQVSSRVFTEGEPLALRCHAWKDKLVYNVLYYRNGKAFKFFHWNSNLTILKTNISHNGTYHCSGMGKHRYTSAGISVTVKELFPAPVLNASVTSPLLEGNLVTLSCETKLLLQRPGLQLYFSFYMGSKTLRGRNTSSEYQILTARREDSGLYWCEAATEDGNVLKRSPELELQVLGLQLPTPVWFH
The experiment in a line: SPR; avid. Background: SPR reads the build-up and loss of mass on a sensor chip optically.

The target of assay [2] is T2, CD16aV (FcγRIIIaV) (UniProt P08637 17-208). Put plainly: SPR.
T2 sequence (P08637 17-208 F176V): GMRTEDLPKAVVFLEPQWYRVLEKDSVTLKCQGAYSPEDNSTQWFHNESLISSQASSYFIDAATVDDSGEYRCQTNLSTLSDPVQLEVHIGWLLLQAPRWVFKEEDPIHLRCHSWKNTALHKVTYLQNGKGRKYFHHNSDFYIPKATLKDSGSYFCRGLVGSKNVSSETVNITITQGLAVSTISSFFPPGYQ
In assay [3] the target is T3, CD32aH (FcγRIIaH) (UniProt P12318 34-217).
T3 chain: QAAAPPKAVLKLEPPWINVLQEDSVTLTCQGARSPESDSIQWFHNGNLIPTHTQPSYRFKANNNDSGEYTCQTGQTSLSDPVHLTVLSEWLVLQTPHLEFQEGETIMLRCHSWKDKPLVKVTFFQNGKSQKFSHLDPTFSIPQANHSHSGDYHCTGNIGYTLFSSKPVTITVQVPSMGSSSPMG
The experiment in a line: SPR.

Assay [4] concerns the target T4, CD32bF (FcγRIIbF) (UniProt P31994 43-217).
T4 chain: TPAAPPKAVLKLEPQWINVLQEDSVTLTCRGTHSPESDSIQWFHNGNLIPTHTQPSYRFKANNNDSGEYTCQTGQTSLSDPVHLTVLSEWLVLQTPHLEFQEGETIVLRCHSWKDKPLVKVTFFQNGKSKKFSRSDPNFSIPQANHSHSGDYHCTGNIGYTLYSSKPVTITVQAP
The experiment in a line: SPR.

The target of assay [5] is T5, CD16aF (FcγRIIIaF) (UniProt P08637 17-208). The experiment in a line: SPR.
T5 sequence (P08637 17-208): as the sequence (P08637 17-208 F176V) above, with V160F counted along it
For assay [6], the target named is T2, CD16aV (FcγRIIIaV). The experiment in a line: SPR. This is another data set of the same source.
For assay [7], the target named is T3, CD32aH (FcγRIIaH). The experiment in a line: SPR.
The target in assay [8] is T4, CD32bF (FcγRIIbF). The experiment in a line: SPR.
For assay [9], the target named is T5, CD16aF (FcγRIIIaF). Put plainly: SPR. The source holds these as a separate data set.
For assay [10], the target named is T1, FcγRIA (CD64). Put plainly: SPR; avid.
Assay [11] addresses T1, FcγRIA (CD64). Put plainly: SPR.

B1: TNX02 anti-CD154 monoclonal antibody (antibody)
heavy: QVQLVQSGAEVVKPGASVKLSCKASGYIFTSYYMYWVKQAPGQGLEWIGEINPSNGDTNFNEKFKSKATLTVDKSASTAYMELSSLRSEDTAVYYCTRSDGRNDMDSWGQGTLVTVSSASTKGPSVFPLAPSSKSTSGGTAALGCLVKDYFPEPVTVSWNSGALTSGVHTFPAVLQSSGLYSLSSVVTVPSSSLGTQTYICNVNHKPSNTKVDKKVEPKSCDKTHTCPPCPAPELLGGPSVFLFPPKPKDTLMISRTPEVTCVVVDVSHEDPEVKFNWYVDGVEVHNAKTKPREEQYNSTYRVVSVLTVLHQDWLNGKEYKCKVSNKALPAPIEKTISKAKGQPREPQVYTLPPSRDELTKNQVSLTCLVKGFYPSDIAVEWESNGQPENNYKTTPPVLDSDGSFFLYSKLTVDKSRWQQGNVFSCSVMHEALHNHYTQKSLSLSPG
light: DIVLTQSPATLSVSPGERATISCRASQRVSSSTYSYMHWYQQKPGQPPKLLIKYASNLESGVPARFSGSGSGTDFTLTISSVEPEDFATYYCQHSWEIPPTFGGGTKLEIKRTVAAPSVFIFPPSDEQLKSGTASVVCLLNNFYPREAKVQWKVDNALQSGNSQESVTEQDSKDSTYSLSSTLTLSKADYEKHKVYACEVTHQGLSSPVTKSFNRGEC
By Kd is commonly meant the free concentration of one partner at which half of the binding sites on the other are occupied at equilibrium, for simple one-to-one binding. Read a low Kd as higher affinity. Regarding B1, the Kd stood at 0.0288 nM in [1]; 0.333 µM in assay [2]; 0.525 µM in [3]; 1.03 µM in [4]; 1.81 µM in assay [5]; 0.32 µM in assay [6]. The Kd in assay [7] was 0.5 µM; in assay [8] it was 0.91 µM; in [9], 1.7 µM.

B2: TNX01 anti-CD154 monoclonal antibody (antibody)
heavy: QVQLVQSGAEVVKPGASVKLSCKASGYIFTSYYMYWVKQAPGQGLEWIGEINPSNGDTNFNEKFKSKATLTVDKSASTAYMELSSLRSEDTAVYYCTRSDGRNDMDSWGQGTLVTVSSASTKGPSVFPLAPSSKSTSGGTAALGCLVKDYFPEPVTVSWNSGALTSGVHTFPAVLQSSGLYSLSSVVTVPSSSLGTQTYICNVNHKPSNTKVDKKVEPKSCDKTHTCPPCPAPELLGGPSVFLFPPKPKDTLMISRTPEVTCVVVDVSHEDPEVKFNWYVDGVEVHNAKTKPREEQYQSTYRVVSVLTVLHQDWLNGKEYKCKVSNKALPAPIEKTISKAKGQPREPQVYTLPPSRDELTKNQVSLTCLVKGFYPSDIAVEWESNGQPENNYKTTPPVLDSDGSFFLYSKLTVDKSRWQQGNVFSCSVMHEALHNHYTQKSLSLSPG
light: DIVLTQSPATLSVSPGERATISCRASQRVSSSTYSYMHWYQQKPGQPPKLLIKYASNLESGVPARFSGSGSGTDFTLTISSVEPEDFATYYCQHSWEIPPTFGGGTKLEIKRTVAAPSVFIFPPSDEQLKSGTASVVCLLNNFYPREAKVQWKVDNALQSGNSQESVTEQDSKDSTYSLSSTLTLSKADYEKHKVYACEVTHQGLSSPVTKSFNRGEC
With B2, the equilibrium dissociation constant (Kd) in [1] was 56 nM; in [10], 0.0765 µM; in [6] it was more than 5 µM; in [7], more than 12 µM; in [8] it was more than 12 µM; in assay [9], more than 5 µM.

B3: TNX09 anti-CD154 monoclonal antibody (antibody)
heavy: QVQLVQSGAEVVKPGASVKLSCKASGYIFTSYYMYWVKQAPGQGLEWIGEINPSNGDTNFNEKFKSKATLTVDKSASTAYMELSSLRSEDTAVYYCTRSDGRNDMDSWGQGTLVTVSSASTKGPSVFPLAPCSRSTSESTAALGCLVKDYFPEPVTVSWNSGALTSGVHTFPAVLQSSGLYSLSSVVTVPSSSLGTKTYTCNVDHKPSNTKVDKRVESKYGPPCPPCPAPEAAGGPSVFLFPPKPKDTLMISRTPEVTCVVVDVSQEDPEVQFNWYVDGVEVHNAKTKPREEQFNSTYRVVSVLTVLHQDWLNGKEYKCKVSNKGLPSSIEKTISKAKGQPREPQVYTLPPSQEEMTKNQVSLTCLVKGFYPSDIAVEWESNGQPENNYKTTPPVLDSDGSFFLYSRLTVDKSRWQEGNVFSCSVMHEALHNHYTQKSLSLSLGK
light: DIVLTQSPATLSVSPGERATISCRASQRVSSSTYSYMHWYQQKPGQPPKLLIKYASNLESGVPARFSGSGSGTDFTLTISSVEPEDFATYYCQHSWEIPPTFGGGTKLEIKRTVAAPSVFIFPPSDEQLKSGTASVVCLLNNFYPREAKVQWKVDNALQSGNSQESVTEQDSKDSTYSLSSTLTLSKADYEKHKVYACEVTHQGLSSPVTKSFNRGEC
Consider B3, for which the dissociation constant Kd was 0.147 µM in assay [11]; 3.77 µM in [2]; more than 12 µM in assay [3]; more than 12 µM in assay [4]; more than 5 µM in [5].

B4: TNX04 anti-CD154 monoclonal antibody (antibody)
heavy: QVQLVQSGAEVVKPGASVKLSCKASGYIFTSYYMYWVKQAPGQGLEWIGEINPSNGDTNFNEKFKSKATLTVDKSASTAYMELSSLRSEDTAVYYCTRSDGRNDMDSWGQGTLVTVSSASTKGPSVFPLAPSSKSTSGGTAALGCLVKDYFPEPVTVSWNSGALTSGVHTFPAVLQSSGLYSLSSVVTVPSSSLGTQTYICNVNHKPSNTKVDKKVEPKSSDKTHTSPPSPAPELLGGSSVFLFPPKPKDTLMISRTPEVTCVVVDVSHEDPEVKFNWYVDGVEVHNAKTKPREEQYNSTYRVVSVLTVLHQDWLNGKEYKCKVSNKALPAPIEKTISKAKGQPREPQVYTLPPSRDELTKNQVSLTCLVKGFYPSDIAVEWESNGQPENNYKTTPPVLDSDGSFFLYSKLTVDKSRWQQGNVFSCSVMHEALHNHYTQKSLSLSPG
light: DIVLTQSPATLSVSPGERATISCRASQRVSSSTYSYMHWYQQKPGQPPKLLIKYASNLESGVPARFSGSGSGTDFTLTISSVEPEDFATYYCQHSWEIPPTFGGGTKLEIKRTVAAPSVFIFPPSDEQLKSGTASVVCLLNNFYPREAKVQWKVDNALQSGNSQESVTEQDSKDSTYSLSSTLTLSKADYEKHKVYACEVTHQGLSSPVTKSFNRGEC
B4: the Kd in assay [1] is 0.309 nM; in assay [10] it was 0.00033 µM; in assay [6] it was 18.7 µM; in assay [7] it was 36.6 µM; in [8], 18 µM; in [9] it was more than 5 µM.

B5: TNX13 anti-CD154 monoclonal antibody (antibody)
heavy: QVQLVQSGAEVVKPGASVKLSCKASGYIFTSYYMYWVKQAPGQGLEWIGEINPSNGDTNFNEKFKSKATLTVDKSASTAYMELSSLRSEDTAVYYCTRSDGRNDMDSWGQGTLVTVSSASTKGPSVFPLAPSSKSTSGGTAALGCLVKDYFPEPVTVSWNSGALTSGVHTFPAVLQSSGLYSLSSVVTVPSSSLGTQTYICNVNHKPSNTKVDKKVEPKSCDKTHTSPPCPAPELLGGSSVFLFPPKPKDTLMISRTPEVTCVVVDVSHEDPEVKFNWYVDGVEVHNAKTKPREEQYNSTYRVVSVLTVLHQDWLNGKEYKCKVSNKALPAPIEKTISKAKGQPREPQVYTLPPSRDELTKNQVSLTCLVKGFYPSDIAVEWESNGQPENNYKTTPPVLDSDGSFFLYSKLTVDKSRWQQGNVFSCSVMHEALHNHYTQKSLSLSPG
light: DIVLTQSPATLSVSPGERATISCRASQRVSSSTYSYMHWYQQKPGQPPKLLIKYASNLESGVPARFSGSGSGTDFTLTISSVEPEDFATYYCQHSWEIPPTFGGGTKLEIKRTVAAPSVFIFPPSDEQLKSGTASVVCLLNNFYPREAKVQWKVDNALQSGNSQESVTEQDSKDSTYSLSSTLTLSKADYEKHKVYACEVTHQGLSSPVTKSFNRGEC
Regarding B5, the Kd in [11] was 0.000222 µM; in [2], more than 5 µM; in [3], 8.95 µM; in [4] it was 5.84 µM; in assay [5], more than 5 µM.

B6: TNX10 anti-CD154 monoclonal antibody (antibody)
heavy: not shown
light: DIVLTQSPATLSVSPGERATISCRASQRVSSSTYSYMHWYQQKPGQPPKLLIKYASNLESGVPARFSGSGSGTDFTLTISSVEPEDFATYYCQHSWEIPPTFGGGTKLEIKRTVAAPSVFIFPPSDEQLKSGTASVVCLLNNFYPREAKVQWKVDNALQSGNSQESVTEQDSKDSTYSLSSTLTLSKADYEKHKVYACEVTHQGLSSPVTKSFNRGEC
On to B6, for which the Kd in assay [11] is 0.0687 µM; in assay [2], 4.63 µM; in [3], more than 12 µM; in assay [4] it was more than 12 µM; in assay [5], more than 5 µM.

B7: TNX12 anti-CD154 monoclonal antibody (antibody)
heavy: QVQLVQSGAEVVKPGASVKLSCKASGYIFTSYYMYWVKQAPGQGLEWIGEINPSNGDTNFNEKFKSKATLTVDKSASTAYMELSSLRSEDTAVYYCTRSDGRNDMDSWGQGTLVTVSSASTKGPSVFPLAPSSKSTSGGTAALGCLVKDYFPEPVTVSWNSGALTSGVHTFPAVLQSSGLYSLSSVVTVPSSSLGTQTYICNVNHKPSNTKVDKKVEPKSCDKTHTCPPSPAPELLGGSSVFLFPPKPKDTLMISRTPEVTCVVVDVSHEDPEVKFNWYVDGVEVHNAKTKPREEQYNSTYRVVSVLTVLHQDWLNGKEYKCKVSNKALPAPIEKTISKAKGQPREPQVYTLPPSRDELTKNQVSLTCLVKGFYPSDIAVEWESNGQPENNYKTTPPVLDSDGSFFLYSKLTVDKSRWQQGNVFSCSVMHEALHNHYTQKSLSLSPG
light: DIVLTQSPATLSVSPGERATISCRASQRVSSSTYSYMHWYQQKPGQPPKLLIKYASNLESGVPARFSGSGSGTDFTLTISSVEPEDFATYYCQHSWEIPPTFGGGTKLEIKRTVAAPSVFIFPPSDEQLKSGTASVVCLLNNFYPREAKVQWKVDNALQSGNSQESVTEQDSKDSTYSLSSTLTLSKADYEKHKVYACEVTHQGLSSPVTKSFNRGEC
With B7, the equilibrium dissociation constant (Kd) is 0.000259 µM in assay [11]; more than 5 µM in assay [2]; more than 12 µM in assay [3]; 8.41 µM in [4]; more than 5 µM in [5].

B8: TNX08 anti-CD154 monoclonal antibody (antibody)
heavy: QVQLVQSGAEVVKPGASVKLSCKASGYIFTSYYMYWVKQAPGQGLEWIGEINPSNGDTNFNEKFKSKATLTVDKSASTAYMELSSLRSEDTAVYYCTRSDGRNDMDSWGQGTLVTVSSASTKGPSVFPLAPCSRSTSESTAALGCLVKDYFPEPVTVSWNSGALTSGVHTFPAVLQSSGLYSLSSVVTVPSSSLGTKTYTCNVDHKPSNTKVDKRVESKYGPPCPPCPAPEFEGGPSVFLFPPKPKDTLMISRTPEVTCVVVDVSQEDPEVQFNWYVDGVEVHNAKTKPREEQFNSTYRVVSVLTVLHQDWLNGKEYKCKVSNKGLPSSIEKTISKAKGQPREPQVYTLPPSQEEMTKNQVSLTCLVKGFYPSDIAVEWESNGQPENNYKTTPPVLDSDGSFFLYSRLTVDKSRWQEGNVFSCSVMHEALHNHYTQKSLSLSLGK
light: DIVLTQSPATLSVSPGERATISCRASQRVSSSTYSYMHWYQQKPGQPPKLLIKYASNLESGVPARFSGSGSGTDFTLTISSVEPEDFATYYCQHSWEIPPTFGGGTKLEIKRTVAAPSVFIFPPSDEQLKSGTASVVCLLNNFYPREAKVQWKVDNALQSGNSQESVTEQDSKDSTYSLSSTLTLSKADYEKHKVYACEVTHQGLSSPVTKSFNRGEC
Consider B8, for which the Kd in assay [11] amounted to 0.103 µM; in assay [2], 3.56 µM; in [3] it was 9.03 µM; in assay [4], 4.2 µM; in [5], 4.44 µM.

B9: TNX06 anti-CD154 monoclonal antibody (antibody)
heavy: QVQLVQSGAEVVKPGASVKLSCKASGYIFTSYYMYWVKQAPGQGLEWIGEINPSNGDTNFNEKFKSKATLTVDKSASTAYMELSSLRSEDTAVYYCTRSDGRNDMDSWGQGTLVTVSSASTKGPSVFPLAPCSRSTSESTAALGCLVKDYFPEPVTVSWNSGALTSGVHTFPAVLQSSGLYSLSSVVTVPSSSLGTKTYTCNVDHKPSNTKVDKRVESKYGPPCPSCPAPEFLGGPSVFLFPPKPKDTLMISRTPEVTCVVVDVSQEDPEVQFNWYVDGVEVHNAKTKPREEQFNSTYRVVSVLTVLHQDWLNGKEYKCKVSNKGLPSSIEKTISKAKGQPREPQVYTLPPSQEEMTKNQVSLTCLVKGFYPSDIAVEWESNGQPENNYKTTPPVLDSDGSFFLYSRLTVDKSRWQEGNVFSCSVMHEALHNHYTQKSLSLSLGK
light: DIVLTQSPATLSVSPGERATISCRASQRVSSSTYSYMHWYQQKPGQPPKLLIKYASNLESGVPARFSGSGSGTDFTLTISSVEPEDFATYYCQHSWEIPPTFGGGTKLEIKRTVAAPSVFIFPPSDEQLKSGTASVVCLLNNFYPREAKVQWKVDNALQSGNSQESVTEQDSKDSTYSLSSTLTLSKADYEKHKVYACEVTHQGLSSPVTKSFNRGEC
Regarding B9, the Kd in assay [11] came out at 0.000285 µM; in assay [2], 2.09 µM; in [3], 3.19 µM; in assay [4], 2.53 µM; in [5], 3.17 µM.

B10: TNX11 anti-CD154 monoclonal antibody (antibody)
heavy: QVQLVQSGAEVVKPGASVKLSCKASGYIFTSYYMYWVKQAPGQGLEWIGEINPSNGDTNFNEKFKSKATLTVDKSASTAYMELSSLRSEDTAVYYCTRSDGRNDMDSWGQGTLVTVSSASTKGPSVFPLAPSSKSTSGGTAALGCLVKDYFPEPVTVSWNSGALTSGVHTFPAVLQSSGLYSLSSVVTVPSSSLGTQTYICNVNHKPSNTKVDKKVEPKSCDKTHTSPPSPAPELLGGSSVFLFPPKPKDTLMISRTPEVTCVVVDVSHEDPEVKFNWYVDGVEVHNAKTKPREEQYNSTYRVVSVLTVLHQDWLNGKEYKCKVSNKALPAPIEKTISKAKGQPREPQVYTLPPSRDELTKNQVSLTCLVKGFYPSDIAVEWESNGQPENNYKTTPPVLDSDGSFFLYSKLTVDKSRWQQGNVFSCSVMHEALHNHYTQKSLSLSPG
light: DIVLTQSPATLSVSPGERATISCRASQRVSSSTYSYMHWYQQKPGQPPKLLIKYASNLESGVPARFSGSGSGTDFTLTISSVEPEDFATYYCQHSWEIPPTFGGGTKLEIKRTVAAPSVFIFPPSDEQLKSGTASVVCLLNNFYPREAKVQWKVDNALQSGNSQESVTEQDSKDSTYSLSSTLTLSKADYEKHKVYACEVTHQGLSSPVTKSFNRGEC
For the molecule B10, the Kd was 0.000479 µM in assay [11]; more than 5 µM in [2]; more than 12 µM in [3]; more than 12 µM in assay [4]; more than 5 µM in [5].

B11: TNX07 anti-CD154 monoclonal antibody (antibody)
heavy: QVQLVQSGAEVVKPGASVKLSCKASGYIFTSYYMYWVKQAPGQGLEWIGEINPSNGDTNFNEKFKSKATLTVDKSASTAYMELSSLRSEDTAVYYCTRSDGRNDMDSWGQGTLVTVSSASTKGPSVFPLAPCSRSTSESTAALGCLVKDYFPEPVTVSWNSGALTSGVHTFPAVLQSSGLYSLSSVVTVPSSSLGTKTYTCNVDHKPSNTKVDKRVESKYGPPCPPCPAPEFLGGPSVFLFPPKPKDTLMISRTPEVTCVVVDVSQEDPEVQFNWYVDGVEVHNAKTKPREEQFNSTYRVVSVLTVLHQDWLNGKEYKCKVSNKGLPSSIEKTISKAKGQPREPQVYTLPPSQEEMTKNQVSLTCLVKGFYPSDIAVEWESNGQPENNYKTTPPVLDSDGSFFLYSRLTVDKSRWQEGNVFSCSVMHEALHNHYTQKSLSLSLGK
light: DIVLTQSPATLSVSPGERATISCRASQRVSSSTYSYMHWYQQKPGQPPKLLIKYASNLESGVPARFSGSGSGTDFTLTISSVEPEDFATYYCQHSWEIPPTFGGGTKLEIKRTVAAPSVFIFPPSDEQLKSGTASVVCLLNNFYPREAKVQWKVDNALQSGNSQESVTEQDSKDSTYSLSSTLTLSKADYEKHKVYACEVTHQGLSSPVTKSFNRGEC
With B11, the Kd in assay [11] was found to be 0.000253 µM; in assay [2], 3.01 µM; in assay [3] it was 3.01 µM; in assay [4], 2.45 µM; in assay [5], 3.66 µM.

B12: TNX05 anti-CD154 monoclonal antibody (antibody)
heavy: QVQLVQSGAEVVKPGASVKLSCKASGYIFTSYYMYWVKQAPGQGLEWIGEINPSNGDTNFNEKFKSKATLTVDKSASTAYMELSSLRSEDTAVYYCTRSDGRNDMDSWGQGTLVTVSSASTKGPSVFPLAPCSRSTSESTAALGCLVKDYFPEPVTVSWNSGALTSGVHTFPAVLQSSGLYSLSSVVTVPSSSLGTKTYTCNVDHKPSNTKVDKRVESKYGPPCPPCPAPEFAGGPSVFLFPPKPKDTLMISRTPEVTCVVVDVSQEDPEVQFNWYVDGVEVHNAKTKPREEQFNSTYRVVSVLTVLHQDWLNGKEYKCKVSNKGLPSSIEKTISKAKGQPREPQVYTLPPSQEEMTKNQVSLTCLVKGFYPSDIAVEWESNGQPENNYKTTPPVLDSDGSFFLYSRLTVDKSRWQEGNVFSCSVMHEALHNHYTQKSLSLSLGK
light: DIVLTQSPATLSVSPGERATISCRASQRVSSSTYSYMHWYQQKPGQPPKLLIKYASNLESGVPARFSGSGSGTDFTLTISSVEPEDFATYYCQHSWEIPPTFGGGTKLEIKRTVAAPSVFIFPPSDEQLKSGTASVVCLLNNFYPREAKVQWKVDNALQSGNSQESVTEQDSKDSTYSLSSTLTLSKADYEKHKVYACEVTHQGLSSPVTKSFNRGEC
Consider B12, for which the Kd in assay [1] is 8.8 nM; in [10] it was 0.0087 µM; in assay [6], 6.04 µM; in assay [7], 7.17 µM; in [8], 4.9 µM; in assay [9], 8.11 µM.
